± gives the standard deviation of the averaged measurements.

This data set is described as follows: total protein half-life in vivo (active degradation + dilution); higher = more stable protein.
Setting [1] is: E. coli NCM3722 delta-clpP, growth: N-lim chemostat, doubling time 6 h.
[2] abbreviates: E. coli NCM3722 delta-hslV, growth: N-lim chemostat, doubling time 6 h.
[3] abbreviates: E. coli NCM3722 delta-lon, growth: N-lim chemostat, doubling time 6 h.
Where [4] appears, read: E. coli NCM3722 delta-smpB, growth: N-lim chemostat, doubling time 6 h.
Setting [5] is: wild type E. coli NCM3722, growth: C-lim chemostat, doubling time 3 h.
[6] abbreviates: wild type E. coli NCM3722, growth: C-lim chemostat, doubling time 6 h.
Setting [7] is: wild type E. coli NCM3722, growth: C-lim chemostat, doubling time 12 h.
Setting [8] is: wild type E. coli NCM3722, growth: N-lim chemostat, doubling time 6 h.
Where [9] appears, read: wild type E. coli NCM3722, growth: N-lim chemostat, doubling time 12 h.
The mark [10] stands for this setting: wild type E. coli NCM3722, growth: P-lim chemostat, doubling time 6 h.
Setting [11] is: wild type E. coli NCM3722, growth: P-lim chemostat, doubling time 12 h.
[12] abbreviates: E. coli NCM3722 delta-clpP delta-lon delta-hslV, growth: N-lim chemostat, doubling time 6 h.

As for “MKYLASFRTTLKASRYMFRALALVLWLLIAFSSVFYIVNALHQRESEIRQEFNLSSDQAQRFIQRTSDVMKELKYIAENRLSAENGVLSPRGRETQADVPAFEPLFADSDCSAMSNTWRGSLESLAWFMRYWRDNFSAAYDLNRVFLIGSDNLCMANFGLRDMPVERDTALKALHERINKYRNAPQDDSGSNLYWISEGPRPGVGYFYALTPVYLANRLQALLGVEQTIRMENFFLPGTLPMGVTILDENGHTLISLTGPESKIKGDPRWMQERSWFGYTEGFRELVLKKNLPPSSLSIVYSVPVDKVLERIRMLILNAILLNVLAGAALFTLARMYERRIFIPAESDALRLEEHEQFNRKIVASAPVGICILRTADGVNILSNELAHTYLNMLTHEDRQRLTQIICGQQVNFVDVLTSNNTNLQISFVHSRYRNENVAICVLVDVSSRVKMEESLQEMAQAAEQASQSKSMFLATVSHELRTPLYGIIGNLDLLQTKELPKGVDRLVTAMNNSSSLLLKIISDILDFSKIESEQLKIEPREFSPREVMNHITANYLPLVVRKQLGLYCFIEPDVPVALNGDPMRLQQVISNLLSNAIKFTDTGCIVLHVRADGDYLSIRVRDTGVGIPAKEVVRLFDPFFQVGTGVQRNFQGTGLGLAICEKLISMMDGDISVDSEPGMGSQFTVRIPLYGAQYPQKKGVEGLSGKRCWLAVRNASLCQFLETSLQRSGIVVTTYEGQEPTPEDVLITDEVVSKKWQGRAVVTFCRRHIGIPLEKAPGEWVHSVAAPHELPALLARIYLIEMESDDPANALPSTDKAVSDNDDMMILVVDDHPINRRLLADQLGSLGYQCKTANDGVDALNVLSKNHIDIVLSDVNMPNMDGYRLTQRIRQLGLTLPVIGVTANALAEEKQRCLESGMDSCLSKPVTLDVIKQTLTLYAERVRKSRDS [P0DMC5]”, the “total protein half-life in vivo” value is, setting by setting: under setting [1], 6.287 ± 0.034 h; under setting [2], 5.76 ± 0.49 h; under setting [3], 6.22 ± 0.067 h; under setting [4], 5.88 ± 0.48 h; under setting [5], 2.98 ± 0.21 h; under setting [6], 6.119 ± 0.024 h. In addition, the “total protein half-life in vivo” value worked out at 13.1 ± 2.3 h under setting [7]; 6.01 ± 0.37 h under setting [8]; 11.6 ± 0.28 h under setting [9]; 6.1 ± 0.12 h under setting [10]; 11.8 ± 0.82 h under setting [11].

On to “MEISFTRVALLAAALFFVGCDQKPQPAKTHATEVTVLEGKTMGTFWRASIPGIDAKRSAELKEKIQTQLDADDQLLSTYKKDSALMRFNDSQSLSPWPVSEAMADIVTTSLRIGAKTDGAMDITVGPLVNLWGFGPEQQPVQIPSQEQIDAMKAKTGLQHLTVINQSHQQYLQKDLPDLYVDLSTVGEGYAADHLARLMEQEGISRYLVSVGGALNSRGMNGEGLPWRVAIQKPTDKENAVQAVVDINGHGISTSGSYRNYYELDGKRLSHVIDPQTGRPIEHNLVSVTVIAPTALEADAWDTGLMVLGPEKAKEVVRREGLAVYMITKEGDSFKTWMSPQFKSFLVSEKN [P0AB85]”, for which the “total protein half-life in vivo” value was 6.34 ± 0.12 h under setting [12]; 6.53 ± 0.012 h under setting [1]; 5.8 ± 0.66 h under setting [2]; 6.9 ± 0.33 h under setting [3]; 5.97 ± 0.26 h under setting [4]; 2.9 ± 0.21 h under setting [5]. In addition, the “total protein half-life in vivo” value is 6.95 ± 0.84 h under setting [6]; 11.9 ± 0.74 h under setting [7]; 6.29 ± 0.19 h under setting [8]; 12.3 ± 1.8 h under setting [9]; 6.3 ± 1.1 h under setting [10]; 13.4 ± 0.18 h under setting [11].

On to “MRMNMSDFATFFAVARNQSFRAAGDELGLSSSAISHSIKTLEQRLKIRLFNRTTRSVSLTEAGSNLYERLRPAFDEIQIMLDEMNDFRLTPTGTLKINAARVAARIFLMSLLVGFTREYPDIKVELTTDDSLVDIVQQGFDAGVRLSCIVEKDMISVAIGPPVKLCVAATPEYFARYGKPRHPHDLLNHQCVVFRYPSGKPFHWQFAKELEIAVAGNIILDDVDAELEAVLMGAGIGYLLYEQIKEYLDTGRLECVLEDWSTERPGFQIYYPNRQYMSCGLRAFLDYVKTGQICQSQRHRPQ”, for which the “total protein half-life in vivo” value under setting [12] turned out to be 5.54 ± 0.06 h.

Regarding “MVLWQSDLRVSWRAQWLSLLIHGLVAAVILLMPWPLSYTPLWMVLLSLVVFDCVRSQRRINARQGEIRLLMDGRLRWQGQEWSIVKAPWMIKSGMMLRLRSDGGKRQHLWLAADSMDEAEWRDLRRILLQQETQR”, the “total protein half-life in vivo” value by setting is: under setting [12], 6.03 ± 0.068 h; under setting [1], 5.69 h; under setting [3], 4.15 ± 0.083 h; under setting [5], 3.47 h; under setting [6], 5.64 ± 1.5 h; under setting [7], 6.78 h. Moreover, the “total protein half-life in vivo” value was determined as 5.67 h under setting [8], 9.7 h under setting [9], 3.85 ± 0.56 h under setting [10] and 7.57 h under setting [11].

Consider “MHPMLNIAVRAARKAGNLIAKNYETPDAVEASQKGSNDFVTNVDKAAEAVIIDTIRKSYPQHTIITEESGELEGTDQDVQWVIDPLDGTTNFIKRLPHFAVSIAVRIKGRTEVAVVYDPMRNELFTATRGQGAQLNGYRLRGSTARDLDGTILATGFPFKAKQYATTYINIVGKLFNECADFRRTGSAALDLAYVAAGRVDGFFEIGLRPWDFAAGELLVREAGGIVSDFTGGHNYMLTGNIVAGNPRVVKAMLANMRDELSDALKR [P0ADG4]”, for which the “total protein half-life in vivo” value under setting [12] was determined as 5.94 ± 0.37 h; the “total protein half-life in vivo” value under setting [1] came to 6.49 ± 1.6 h; the “total protein half-life in vivo” value under setting [2] is 5.2 ± 0.23 h; the “total protein half-life in vivo” value under setting [4] was 5.39 ± 0.47 h; the “total protein half-life in vivo” value under setting [5] came to 3.01 ± 0.21 h; the “total protein half-life in vivo” value under setting [6] came to 6.17 ± 0.55 h. For the same sequence, the “total protein half-life in vivo” value amounted to 12 ± 0.71 h under setting [7]; 5.53 ± 0.19 h under setting [8]; 10.2 ± 0.39 h under setting [9]; 6.063 ± 0.06 h under setting [10]; 14 ± 1 h under setting [11].

For the sequence “MDIIFYHPTFDTQWWIEALRKAIPQARVRAWKSGDNDSADYALVWHPPVEMLAGRDLKAVFALGAGVDSILSKLQAHPEMLNPSVPLFRLEDTGMGEQMQEYAVSQVLHWFRRFDDYRIQQNSSHWQPLPEYHREDFTIGILGAGVLGSKVAQSLQTWRFPLRCWSRTRKSWPGVQSFAGREELSAFLSQCRVLINLLPNTPETVGIINQQLLEKLPDGAYLLNLARGVHVVEDDLLAALDSGKVKGAMLDVFNREPLPPESPLWQHPRVTITPHVAAITRPAEAVEYISRTIAQLEKGERVCGQVDRARGY”, the “total protein half-life in vivo” value under setting [12] was determined as 5.02 ± 0.051 h; the “total protein half-life in vivo” value under setting [1] amounted to 4.58 ± 0.51 h; the “total protein half-life in vivo” value under setting [2] worked out at 5.71 ± 1.3 h; the “total protein half-life in vivo” value under setting [3] came out at 4.67 ± 0.34 h; the “total protein half-life in vivo” value under setting [4] amounted to 4.43 ± 0.24 h; the “total protein half-life in vivo” value under setting [5] was 2.69 ± 0.43 h. The “total protein half-life in vivo” value by setting is: under setting [6], 5.64 ± 0.55 h; under setting [7], 10.3 ± 1.4 h; under setting [8], 4.45 ± 0.25 h; under setting [9], 7.3 ± 0.49 h; under setting [10], 5.821 ± 0.027 h; under setting [11], 11 ± 0.45 h.

With “MEYKDPMHELLSSLEQIVFKDETQKITLTHRTTSCTEIEQLRKGTGLKIDDFARVLGVSVAMVKEWESRRVKPSSAELKLMRLIQANPALSKQLME [P0A9V5]”, the “total protein half-life in vivo” value worked out at 0.508 ± 0.1 h under setting [1], 0.337 h under setting [3], 0.409 h under setting [4] and 0.277 h under setting [8].

Values taken from the supplement of paper PMC11246515.
